The labels stand for the following.
B1: murine TGFR-3-ZP (recombinant ZP domain of TGF-β receptor type 3, residues 438-782, including the EHP) (domain or fragment, mouse, UniProt O88393 438-782, looked up)
chain: REPEEVQGGVNIALSVKCDNEKMVVAVDKDSFQTNGYSGMELTLLDPSCKAKMNGTHFVLESPLNGCGTRHRRSAPDGVVYYNSIVVQAPSPGDSSGWPDGYEDLESGDNGFPGDTDEGETAPLSRAGVVVFNCSLRQLRSPSGFQDQLDGNATFNMELYNTDLFLVPSPGVFSVAENEHVYVEVSVTKADQDLGFAIQTCFISPYSNPDRMSDYTIIENICPKDDSVKFYSSKRVHFPIPHAEVDKKRFSFVFKSVFNTSLLFLHCELTLCSRNKGSQKLPKCVTPDDACTSLDATMIWTMMQNKKTFTKPLAVVLQVDYKENVPNMKESSPVPPPPQIFHGLD
modifications: secretory glycoprotein; four potential N-glycosylation sites (positions 491, 570, 589 and 696)
notes: TGF-β receptor type 3 (TGFR-3, betaglycan), mouse, residues 438-782 (ZP core domain plus C-terminal extension 729-782 with the EHP); numbering adheres to UniProtKB/TrEMBL O88393 and includes the N-terminal signal peptide; From the forward primer the thrombin site LVPRGS precedes residue 438, so Gly-Ser probably remain after cleavage (surmised); Dimer by DLS and SEC only (apparent masses); also …
B2: TGFR-3-ZP(234) (domain or fragment, mouse, UniProt O88393 438-782, looked up)
chain: B1 chain with N133Q, N152Q, N259Q
modifications: one remaining potential N-glycosylation site (N491)
notes: TGF-β receptor type 3 (TGFR-3, betaglycan), mouse, residues 438-782 with three of four potential N-glycosylation sites mutated to glutamine; numbering adheres to O88393 including the signal peptide; Same construct and vector as m1; also called glycosylation-attenuated TGFR-3-ZP variant; source: HEK293 EBNA cells, secreted, purified (Ni-Sepharose, thrombin cleavage, SEC); not shown: His6, …
B3: human BMP-2 (ligand, UniProt P12643 283-396, looked up)
chain: QAKHKQRKRLKSSCKRHPLYVDFSDVGWNDWIVAPPGYHAFYCHGECPFPLADHLNSTNHAIVQTLVNSVNSKIPKACCVPTELSAISMLYLDENEKVVLKNYQDMVVEGCGCR
modifications: biotinylated with Sulfo-NHS-LC-biotin (1 or 2 biotin moieties) for immobilisation
notes: bone morphogenetic protein 2, human; also called bone morphogenetic protein 2

Series [1] deals with the molecule itself. As to the kind of experiment: dynamic light scattering; TGFR-3-ZP alone, 2 mg/ml, 20 mM HEPES pH 7.4, 20°C; apparent molecular weight from hydrodynamic radius.
Series [2] concerns the molecule itself. The series is described as follows: SEC; analytical SEC of the ligand-free protein on Superdex 200 10/300, 4°C, 0.5 ml/min; apparent molecular weight against standards.
Series [3] has as its target B1. The series is described as follows: SPR; Biacore 2000; biotinylated ligands immobilised on streptavidin-coated CM5 chip, TGFR-3-ZP variants as analytes; 25°C, HBS500 (10 mM HEPES pH 7.4, 500 mM NaCl, 3.4 mM EDTA, 0.005% P20); apparent affinities from equilibrium binding. Particulars: both partners purified.
The series “TGFR-3-ZP(234)” has as its target B2. The description is as above. Particulars: both partners purified.

The record followed here is publication PMC3695229, “Identification of a Novel TGF-β-Binding Site in the Zona Pellucida C-terminal (ZP-C) Domain of TGF-β-Receptor-3 (TGFR-3)” (PLoS ONE, 2013).

Where a chain is given by its changes, count along the chain named.

Take B1: in series [1], the “stoichiometry N” value worked out at 2.

In the case of B2, the “stoichiometry N” value in series [2] is 2.

Turning to B3, the Kd in series [3] is 29.1 µM; with TGFR-3-ZP(234), 34.6 µM.
